Data published in US20180155451A1 (published 2018).

B1: GpH7-B3 variant E269_01G/GpL16-k0 (antibody, human IgG1, kappa)
heavy: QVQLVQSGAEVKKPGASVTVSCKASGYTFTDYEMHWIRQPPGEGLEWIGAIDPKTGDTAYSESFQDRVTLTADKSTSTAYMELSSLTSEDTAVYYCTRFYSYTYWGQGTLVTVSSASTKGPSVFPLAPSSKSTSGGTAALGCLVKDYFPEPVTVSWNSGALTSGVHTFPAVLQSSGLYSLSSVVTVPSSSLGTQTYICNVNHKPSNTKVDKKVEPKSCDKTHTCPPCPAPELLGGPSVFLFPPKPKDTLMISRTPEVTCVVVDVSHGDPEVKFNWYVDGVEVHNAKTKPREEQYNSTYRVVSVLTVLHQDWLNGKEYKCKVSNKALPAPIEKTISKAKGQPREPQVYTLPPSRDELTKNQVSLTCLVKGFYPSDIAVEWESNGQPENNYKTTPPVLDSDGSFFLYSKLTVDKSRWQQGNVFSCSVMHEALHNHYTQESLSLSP
light: DIVMTQSPLSLPVTPGEPASISCQASESLVHSNRNTYLHWYLQKPGQSPQLLIYKVSNRFSGVPDRFSGSGSGTDFTLKISRVEAEDVGVYYCSQNTHVPPTFGQGTKVEIERTVAAPSVFIFPPSDEQLKSGTASVVCLLNNFYPREAKVQWKVDNALQSGNSQESVTEQDSKDSTYSLSSTLTLSKADYEKHKVYACEVTHQGLSSPVTKSFNRGEC
notes: homodimerized; also called Ho Ab E269_01G
B2: GpH7-B3 variant L234_07I/GpL16-k0 (antibody, human IgG1, kappa)
heavy: not shown
light: B1 light
notes: homodimerized; also called Ho Ab L234_07I
B3: GpH7-B3 variant H268_02A/GpL16-k0 (antibody, human IgG1, kappa)
heavy: not shown
light: B1 light
notes: homodimerized; also called Ho Ab H268_02A
B4: GpH7-B3 variant E269_14T/GpL16-k0 (antibody, human IgG1, kappa)
heavy: not shown
light: B1 light
notes: homodimerized; also called Ho Ab E269_14T
B5: GpH7-B3 variant L234_10E/GpL16-k0 (antibody, human IgG1, kappa)
heavy: not shown
light: B1 light
notes: homodimerized; also called Ho Ab L234_10E; GpH7-B16/GpL16-k0
B6: GpH7-B3 variant I332_12R/GpL16-k0 (antibody, human IgG1, kappa)
heavy: not shown
light: B1 light
notes: homodimerized; also called Ho Ab I332_12R
B7: GpH7-B3 variant H268_07I/GpL16-k0 (antibody, human IgG1, kappa)
heavy: not shown
light: B1 light
notes: homodimerized; also called Ho Ab H268_07I
B8: GpH7-B3 variant E333_05P/GpL16-k0 (antibody, human IgG1, kappa)
heavy: not shown
light: B1 light
notes: homodimerized; also called Ho Ab E333_05P
B9: GpH7-B3 variant E269_13S/GpL16-k0 (antibody, human IgG1, kappa)
heavy: not shown
light: B1 light
notes: homodimerized; also called Ho Ab E269_13S
B10: GpH7-B3 variant E269_16H/GpL16-k0 (antibody, human IgG1, kappa)
heavy: not shown
light: B1 light
notes: homodimerized; also called Ho Ab E269_16H
B11: GpH7-B3 variant E333_01G/GpL16-k0 (antibody, human IgG1, kappa)
heavy: not shown
light: B1 light
notes: homodimerized; also called Ho Ab E333_01G
B12: GpH7-B3 variant L234_04F/GpL16-k0 (antibody, human IgG1, kappa)
heavy: not shown
light: B1 light
notes: homodimerized; also called Ho Ab L234_04F
B13: GpH7-B3 variant E269_02A/GpL16-k0 (antibody, human IgG1, kappa)
heavy: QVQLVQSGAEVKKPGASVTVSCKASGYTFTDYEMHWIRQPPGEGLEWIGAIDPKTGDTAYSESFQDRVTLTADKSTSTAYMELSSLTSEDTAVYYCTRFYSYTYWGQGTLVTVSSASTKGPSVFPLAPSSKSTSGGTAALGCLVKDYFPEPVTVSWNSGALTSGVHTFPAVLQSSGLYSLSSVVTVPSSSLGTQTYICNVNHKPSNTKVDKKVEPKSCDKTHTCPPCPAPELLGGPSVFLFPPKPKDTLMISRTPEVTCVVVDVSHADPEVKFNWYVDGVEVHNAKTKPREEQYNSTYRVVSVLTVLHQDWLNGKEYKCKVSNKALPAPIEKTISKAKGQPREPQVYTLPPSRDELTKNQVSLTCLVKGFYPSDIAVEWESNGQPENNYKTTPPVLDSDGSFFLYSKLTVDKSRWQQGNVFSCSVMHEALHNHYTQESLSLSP
light: B1 light
notes: homodimerized; also called Ho Ab E269_02A
B14: GpH7-B3 variant I336_10E/GpL16-k0 (antibody, human IgG1, kappa)
heavy: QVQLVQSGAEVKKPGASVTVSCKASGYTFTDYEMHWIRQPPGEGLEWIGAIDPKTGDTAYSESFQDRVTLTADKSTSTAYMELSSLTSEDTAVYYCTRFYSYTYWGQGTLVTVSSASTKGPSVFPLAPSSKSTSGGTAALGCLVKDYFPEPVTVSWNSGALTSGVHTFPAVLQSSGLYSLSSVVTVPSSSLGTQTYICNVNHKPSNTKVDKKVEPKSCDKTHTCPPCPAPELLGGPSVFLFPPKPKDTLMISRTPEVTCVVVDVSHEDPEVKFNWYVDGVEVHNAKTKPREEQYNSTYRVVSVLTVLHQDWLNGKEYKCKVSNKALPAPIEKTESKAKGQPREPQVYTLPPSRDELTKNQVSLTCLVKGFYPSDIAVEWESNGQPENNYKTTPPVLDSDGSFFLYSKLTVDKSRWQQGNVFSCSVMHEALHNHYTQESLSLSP
light: B1 light
notes: homodimerized; also called Ho Ab I336_10E
B15: GpH7-B3 variant I336_02A/GpL16-k0 (antibody, human IgG1, kappa)
heavy: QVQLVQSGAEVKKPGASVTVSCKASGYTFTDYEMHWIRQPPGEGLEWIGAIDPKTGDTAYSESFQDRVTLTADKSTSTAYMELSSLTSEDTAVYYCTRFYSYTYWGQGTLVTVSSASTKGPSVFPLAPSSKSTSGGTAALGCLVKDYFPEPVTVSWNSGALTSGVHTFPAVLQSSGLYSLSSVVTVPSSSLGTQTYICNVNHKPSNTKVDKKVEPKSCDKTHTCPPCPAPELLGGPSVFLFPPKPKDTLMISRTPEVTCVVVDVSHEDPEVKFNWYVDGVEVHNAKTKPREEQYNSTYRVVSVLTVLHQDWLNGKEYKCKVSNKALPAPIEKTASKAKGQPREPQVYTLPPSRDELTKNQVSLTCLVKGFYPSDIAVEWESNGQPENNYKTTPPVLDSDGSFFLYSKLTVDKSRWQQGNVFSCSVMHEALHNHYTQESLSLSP
light: B1 light
notes: homodimerized; also called Ho Ab I336_02A
B16: GpH7-B3 variant K326_14T/GpL16-k0 (antibody, human IgG1, kappa)
heavy: not shown
light: B1 light
notes: homodimerized; also called Ho Ab K326_14T
B17: GpH7-B3 variant K326_18N/GpL16-k0 (antibody, human IgG1, kappa)
heavy: not shown
light: B1 light
notes: homodimerized; also called Ho Ab K326_18N
B18: GpH7-B3 variant E269_07I/GpL16-k0 (antibody, human IgG1, kappa)
heavy: not shown
light: B1 light
notes: homodimerized; also called Ho Ab E269_07I
B19: GpH7-B3 variant I336_06M/GpL16-k0 (antibody, human IgG1, kappa)
heavy: not shown
light: B1 light
notes: homodimerized; also called Ho Ab I336_06M
B20: GpH7-B3 variant E333_13S/GpL16-k0 (antibody, human IgG1, kappa)
heavy: not shown
light: B1 light
notes: homodimerized; also called Ho Ab E333_13S
B21: GpH7-B3 variant E333_04F/GpL16-k0 (antibody, human IgG1, kappa)
heavy: not shown
light: B1 light
notes: homodimerized; also called Ho Ab E333_04F
B22: GpH7-B3 variant L234_03V/GpL16-k0 (antibody, human IgG1, kappa)
heavy: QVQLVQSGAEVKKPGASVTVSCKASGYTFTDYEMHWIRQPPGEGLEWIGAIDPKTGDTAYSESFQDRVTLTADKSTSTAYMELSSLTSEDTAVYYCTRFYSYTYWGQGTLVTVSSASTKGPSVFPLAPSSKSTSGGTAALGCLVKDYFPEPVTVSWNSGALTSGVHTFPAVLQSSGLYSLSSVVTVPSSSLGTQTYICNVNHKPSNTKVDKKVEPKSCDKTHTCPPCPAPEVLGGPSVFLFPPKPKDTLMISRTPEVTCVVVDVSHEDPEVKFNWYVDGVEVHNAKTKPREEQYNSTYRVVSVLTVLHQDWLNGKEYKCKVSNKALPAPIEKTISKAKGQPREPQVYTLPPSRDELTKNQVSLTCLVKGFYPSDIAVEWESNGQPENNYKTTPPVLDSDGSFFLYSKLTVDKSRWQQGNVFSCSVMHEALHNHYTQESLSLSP
light: B1 light
notes: homodimerized; also called Ho Ab L234_03V
B23: GpH7-B3 variant K334_10E/GpL16-k0 (antibody, human IgG1, kappa)
heavy: not shown
light: B1 light
notes: homodimerized; also called Ho Ab K334_10E
B24: GpH7-B3 variant H268_14T/GpL16-k0 (antibody, human IgG1, kappa)
heavy: not shown
light: B1 light
notes: homodimerized; also called Ho Ab H268_14T
B25: GpH7-B3 variant E269_18N/GpL16-k0 (antibody, human IgG1, kappa)
heavy: not shown
light: B1 light
notes: homodimerized; also called Ho Ab E269_18N
B26: GpH7-B3 variant E269_05P/GpL16-k0 (antibody, human IgG1, kappa)
heavy: not shown
light: B1 light
notes: homodimerized; also called Ho Ab E269_05P
B27: GpH7-B3 variant E269_06M/GpL16-k0 (antibody, human IgG1, kappa)
heavy: not shown
light: B1 light
notes: homodimerized; also called Ho Ab E269_06M
B28: GpH7-B3 variant K326_15Y/GpL16-k0 (antibody, human IgG1, kappa)
heavy: not shown
light: B1 light
notes: homodimerized; also called Ho Ab K326_15Y
B29: GpH7-B3 variant K334_12R/GpL16-k0 (antibody, human IgG1, kappa)
heavy: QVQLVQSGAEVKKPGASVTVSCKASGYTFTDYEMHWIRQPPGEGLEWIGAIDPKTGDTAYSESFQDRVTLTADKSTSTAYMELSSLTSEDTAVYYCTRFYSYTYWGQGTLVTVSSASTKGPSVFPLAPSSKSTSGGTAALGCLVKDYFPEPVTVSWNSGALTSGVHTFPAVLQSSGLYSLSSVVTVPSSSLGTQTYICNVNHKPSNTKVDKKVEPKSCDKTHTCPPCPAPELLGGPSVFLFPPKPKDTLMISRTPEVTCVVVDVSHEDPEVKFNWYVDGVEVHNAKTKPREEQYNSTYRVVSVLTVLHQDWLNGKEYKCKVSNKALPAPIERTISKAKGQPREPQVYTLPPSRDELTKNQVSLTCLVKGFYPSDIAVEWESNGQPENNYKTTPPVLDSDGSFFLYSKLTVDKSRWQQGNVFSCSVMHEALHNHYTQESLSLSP
light: B1 light
notes: homodimerized; also called Ho Ab K334_12R
B30: GpH7-B3 variant H268_08L/GpL16-k0 (antibody, human IgG1, kappa)
heavy: not shown
light: B1 light
notes: homodimerized; also called Ho Ab H268_08L
B31: GpH7-B3 variant E333_08L/GpL16-k0 (antibody, human IgG1, kappa)
heavy: not shown
light: B1 light
notes: homodimerized; also called Ho Ab E333_08L
B32: GpH7-B3 variant E333_07I/GpL16-k0 (antibody, human IgG1, kappa)
heavy: not shown
light: B1 light
notes: homodimerized; also called Ho Ab E333_07I
B33: GpH7-B3 variant K334_20W/GpL16-k0 (antibody, human IgG1, kappa)
heavy: not shown
light: B1 light
notes: homodimerized; also called Ho Ab K334_20W
B34: GpH7-B3 variant E333_09D/GpL16-k0 (antibody, human IgG1, kappa)
heavy: not shown
light: B1 light
notes: homodimerized; also called Ho Ab E333_09D
B35: GpH7-B3 variant K326_16H/GpL16-k0 (antibody, human IgG1, kappa)
heavy: not shown
light: B1 light
notes: homodimerized; also called Ho Ab K326_16H
B36: GpH7-B3 variant E333_16H/GpL16-k0 (antibody, human IgG1, kappa)
heavy: not shown
light: B1 light
notes: homodimerized; also called Ho Ab E333_16H
B37: GpH7-B3 variant G236_02A/GpL16-k0 (antibody, human IgG1, kappa)
heavy: not shown
light: B1 light
notes: homodimerized; also called Ho Ab G236_02A
B38: GpH7-B3 variant G236_20W/GpL16-k0 (antibody, human IgG1, kappa)
heavy: not shown
light: B1 light
notes: homodimerized; also called Ho Ab G236_20W; GpH7-B3-03-20W/GpL16-k0
B39: GpH7-B3 variant H268_12R/GpL16-k0 (antibody, human IgG1, kappa)
heavy: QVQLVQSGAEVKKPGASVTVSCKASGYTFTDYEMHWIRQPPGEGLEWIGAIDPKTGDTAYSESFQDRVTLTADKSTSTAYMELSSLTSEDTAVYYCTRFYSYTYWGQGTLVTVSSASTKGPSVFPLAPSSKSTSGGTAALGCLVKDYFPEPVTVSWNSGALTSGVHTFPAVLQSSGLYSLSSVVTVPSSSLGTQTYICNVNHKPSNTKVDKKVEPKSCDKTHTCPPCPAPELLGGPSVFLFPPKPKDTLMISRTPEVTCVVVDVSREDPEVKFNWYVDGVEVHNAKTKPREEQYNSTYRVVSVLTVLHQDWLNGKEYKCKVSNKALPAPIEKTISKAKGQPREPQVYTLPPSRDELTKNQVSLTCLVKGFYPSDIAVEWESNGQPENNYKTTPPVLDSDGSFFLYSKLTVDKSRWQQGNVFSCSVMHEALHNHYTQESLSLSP
light: B1 light
notes: homodimerized; also called Ho Ab H268_12R
B40: GpH7-B3 variant E269_15Y/GpL16-k0 (antibody, human IgG1, kappa)
heavy: not shown
light: B1 light
notes: homodimerized; also called Ho Ab E269_15Y
B41: GpH7-B3 variant E333_03V/GpL16-k0 (antibody, human IgG1, kappa)
heavy: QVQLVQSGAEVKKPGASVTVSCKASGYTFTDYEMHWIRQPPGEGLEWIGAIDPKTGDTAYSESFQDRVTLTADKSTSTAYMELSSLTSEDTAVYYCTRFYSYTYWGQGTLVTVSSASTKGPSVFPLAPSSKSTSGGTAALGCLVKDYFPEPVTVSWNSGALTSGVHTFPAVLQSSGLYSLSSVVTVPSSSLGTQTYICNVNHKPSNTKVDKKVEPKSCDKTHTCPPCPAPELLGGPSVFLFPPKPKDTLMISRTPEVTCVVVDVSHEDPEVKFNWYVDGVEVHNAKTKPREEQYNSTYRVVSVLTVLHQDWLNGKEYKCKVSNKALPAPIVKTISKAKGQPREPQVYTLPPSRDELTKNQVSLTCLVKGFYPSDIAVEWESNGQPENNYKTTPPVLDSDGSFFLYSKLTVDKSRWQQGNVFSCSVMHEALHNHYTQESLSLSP
light: B1 light
notes: homodimerized; also called Ho Ab E333_03V
B42: GpH7-B3 variant K326_12R/GpL16-k0 (antibody, human IgG1, kappa)
heavy: not shown
light: B1 light
notes: homodimerized; also called Ho Ab K326_12R
B43: GpH7-B3 variant I336_18N/GpL16-k0 (antibody, human IgG1, kappa)
heavy: not shown
light: B1 light
notes: homodimerized; also called Ho Ab I336_18N
B44: GpH7-B3 variant H268_05P/GpL16-k0 (antibody, human IgG1, kappa)
heavy: not shown
light: B1 light
notes: homodimerized; also called Ho Ab H268_05P
B45: GpH7-B3 variant E333_11K/GpL16-k0 (antibody, human IgG1, kappa)
heavy: not shown
light: B1 light
notes: homodimerized; also called Ho Ab E333_11K
B46: GpH7-B3 variant E333_14T/GpL16-k0 (antibody, human IgG1, kappa)
heavy: not shown
light: B1 light
notes: homodimerized; also called Ho Ab E333_14T
B47: GpH7-B3 variant E269_03V/GpL16-k0 (antibody, human IgG1, kappa)
heavy: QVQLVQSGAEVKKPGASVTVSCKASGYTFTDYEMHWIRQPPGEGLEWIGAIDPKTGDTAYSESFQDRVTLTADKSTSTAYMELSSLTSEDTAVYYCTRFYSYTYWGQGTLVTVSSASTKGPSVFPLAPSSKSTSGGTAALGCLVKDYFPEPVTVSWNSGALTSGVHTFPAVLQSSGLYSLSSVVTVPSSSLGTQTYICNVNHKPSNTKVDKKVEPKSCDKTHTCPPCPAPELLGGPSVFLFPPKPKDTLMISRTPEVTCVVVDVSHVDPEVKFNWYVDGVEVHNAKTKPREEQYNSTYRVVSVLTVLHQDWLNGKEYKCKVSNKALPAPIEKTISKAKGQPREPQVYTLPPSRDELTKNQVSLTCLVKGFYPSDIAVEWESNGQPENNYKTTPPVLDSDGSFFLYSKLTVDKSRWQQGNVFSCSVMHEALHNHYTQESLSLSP
light: B1 light
notes: homodimerized; also called Ho Ab E269_03V
B48: GpH7-B3 variant E269_08L/GpL16-k0 (antibody, human IgG1, kappa)
heavy: not shown
light: B1 light
notes: homodimerized; also called Ho Ab E269_08L
B49: GpH7-B3 variant I336_03V/GpL16-k0 (antibody, human IgG1, kappa)
heavy: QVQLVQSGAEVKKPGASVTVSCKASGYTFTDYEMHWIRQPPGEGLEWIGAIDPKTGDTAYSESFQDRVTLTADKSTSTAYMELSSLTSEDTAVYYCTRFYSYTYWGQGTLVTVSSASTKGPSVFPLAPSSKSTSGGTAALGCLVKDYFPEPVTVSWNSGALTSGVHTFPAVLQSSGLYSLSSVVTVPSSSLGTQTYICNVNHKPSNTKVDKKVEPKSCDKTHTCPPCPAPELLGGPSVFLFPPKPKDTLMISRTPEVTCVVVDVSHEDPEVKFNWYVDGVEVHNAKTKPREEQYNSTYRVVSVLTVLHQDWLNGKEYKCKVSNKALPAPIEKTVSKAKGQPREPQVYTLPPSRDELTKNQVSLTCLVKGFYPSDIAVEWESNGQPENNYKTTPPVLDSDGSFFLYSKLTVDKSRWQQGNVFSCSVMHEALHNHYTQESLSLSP
light: B1 light
notes: homodimerized; also called Ho Ab I336_03V
B50: GpH7-B3 variant H268_20W/GpL16-k0 (antibody, human IgG1, kappa)
heavy: not shown
light: B1 light
notes: homodimerized; also called Ho Ab H268_20W
B51: GpH7-B3 variant I336_04F/GpL16-k0 (antibody, human IgG1, kappa)
heavy: not shown
light: B1 light
notes: homodimerized; also called Ho Ab I336_04F
B52: GpH7-B3 variant L234_06M/GpL16-k0 (antibody, human IgG1, kappa)
heavy: not shown
light: B1 light
notes: homodimerized; also called Ho Ab L234_06M
B53: GpH7-B3 variant K334_06M/GpL16-k0 (antibody, human IgG1, kappa)
heavy: not shown
light: B1 light
notes: homodimerized; also called Ho Ab K334_06M
B54: GpH7-B3 variant E333_15Y/GpL16-k0 (antibody, human IgG1, kappa)
heavy: not shown
light: B1 light
notes: homodimerized; also called Ho Ab E333_15Y
B55: GpH7-B3 variant E333_06M/GpL16-k0 (antibody, human IgG1, kappa)
heavy: not shown
light: B1 light
notes: homodimerized; also called Ho Ab E333_06M
B56: GpH7-B3 variant E269_20W/GpL16-k0 (antibody, human IgG1, kappa)
heavy: not shown
light: B1 light
notes: homodimerized; also called Ho Ab E269_20W
B57: GpH7-B3 variant E269_19Q/GpL16-k0 (antibody, human IgG1, kappa)
heavy: not shown
light: B1 light
notes: homodimerized; also called Ho Ab E269_19Q
B58: GpH7-B3 variant E269_09D/GpL16-k0 (antibody, human IgG1, kappa)
heavy: not shown
light: B1 light
notes: homodimerized; also called Ho Ab E269_09D
B59: GpH7-B3 variant E333_12R/GpL16-k0 (antibody, human IgG1, kappa)
heavy: not shown
light: B1 light
notes: homodimerized; also called Ho Ab E333_12R
B60: GpH7-B3 variant E333_02A/GpL16-k0 (antibody, human IgG1, kappa)
heavy: not shown
light: B1 light
notes: homodimerized; also called Ho Ab E333_02A
B61: GpH7-B3 variant I336_01G/GpL16-k0 (antibody, human IgG1, kappa)
heavy: not shown
light: B1 light
notes: homodimerized; also called Ho Ab I336_01G

target: T1, FcγRIa (human, UniProt P12314 16-292); assay: SPR; vs GpH7-B3/GpL16-k0=100
T1 construct: extracellular domain; also called FcgRI; CD64
T1 sequence (P12314 16-292): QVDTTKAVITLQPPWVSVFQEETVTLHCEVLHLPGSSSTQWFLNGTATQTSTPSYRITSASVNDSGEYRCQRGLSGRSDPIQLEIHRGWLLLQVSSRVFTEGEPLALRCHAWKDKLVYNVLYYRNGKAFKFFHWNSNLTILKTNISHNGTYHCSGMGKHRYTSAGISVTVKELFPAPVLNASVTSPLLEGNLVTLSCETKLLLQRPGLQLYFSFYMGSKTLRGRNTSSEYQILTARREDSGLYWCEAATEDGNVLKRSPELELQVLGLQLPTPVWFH

Binder	Ho/Con_1a
B1	97.4 % of control
B2	99.5 % of control
B3	106 % of control
B4	96.2 % of control
B5	79.6 % of control
B6	93.2 % of control
B7	106 % of control
B8	99.2 % of control
B9	95.9 % of control
B10	98.4 % of control
B11	100 % of control
B12	93.5 % of control
B13	96.2 % of control
B14	107 % of control
B15	103 % of control
B16	103 % of control
B17	102 % of control
B18	97.1 % of control
B19	104 % of control
B20	101 % of control
B21	98.4 % of control

Binder	Ho/Con_1a
B22	98.2 % of control
B23	107 % of control
B24	109 % of control
B25	92.7 % of control
B26	95.7 % of control
B27	101 % of control
B28	101 % of control
B29	102 % of control
B30	105 % of control
B31	99 % of control
B32	99.9 % of control
B33	104 % of control
B34	103 % of control
B35	101 % of control
B36	99.1 % of control
B37	92.4 % of control
B38	104 % of control
B39	105 % of control
B40	100 % of control
B41	98.4 % of control
B42	100 % of control

Binder	Ho/Con_1a
B43	104 % of control
B44	108 % of control
B45	95.8 % of control
B46	98.7 % of control
B47	95.4 % of control
B48	101 % of control
B49	105 % of control
B50	106 % of control
B51	104 % of control
B52	96.5 % of control
B53	104 % of control
B54	100 % of control
B55	99.5 % of control
B56	98.9 % of control
B57	99.6 % of control
B58	106 % of control
B59	94.2 % of control
B60	96.2 % of control
B61	104 % of control
